Our source for the abundance fitness values is the Human Domainome abundance scans (Beltran et al. 2025).

B1: Peroxisome proliferator-activated receptor delta, residues 71 to 145; numbered along this chain, Q03181 (parent)
chain: NMECRVCGDKASGFHYGVHACEGCKGFFRRTIRMKLEYEKCERSCKIQKKNRNKCQYCRFQKCLALGMSHNAIRF

± gives the uncertainty stated by the source.

The data set covers variants of B1. Put plainly: abundance fitness (aPCA) (normalised: wild type 0, dead -1); higher = more abundant; growth selection in yeast, the domain comes from the species named. To be noted: Homo sapiens.
Consider YMECRVCGDKASGFHYGVHACEGCKGFFRRTIRMKLEYEKCERSCKIQKKNRNKCQYCRFQKCLALGMSHNAIRF [N1Y], for which the abundance fitness is -0.266 ± 0.15.

As to NMECRVCGDKASGFHYGVHACEGCKGFFRRTIRMKLEYEKCERSCKIQKKNRNKCQYCRFQKCLLLGMSHNAIRF [A65L], the abundance fitness was -0.098 ± 0.036. The same measure for NMECRVCGDCASGFHYGVHACEGCKGFFRRTIRMKLEYEKCERSCKIQKKNRNKCQYCRFQKCLALGMSHNAIRF [K10C]: -0.336 ± 0.074; for NMECRVCGWKASGFHYGVHACEGCKGFFRRTIRMKLEYEKCERSCKIQKKNRNKCQYCRFQKCLALGMSHNAIRF [D9W]: -0.618 ± 0.097. For the variant NMECRVCGIKASGFHYGVHACEGCKGFFRRTIRMKLEYEKCERSCKIQKKNRNKCQYCRFQKCLALGMSHNAIRF [D9I], the abundance fitness is -0.345 ± 0.12.

For the variant NMECRVCGGKASGFHYGVHACEGCKGFFRRTIRMKLEYEKCERSCKIQKKNRNKCQYCRFQKCLALGMSHNAIRF [D9G], the abundance fitness was -0.198 ± 0.037. As for NMECRSCGDKASGFHYGVHACEGCKGFFRRTIRMKLEYEKCERSCKIQKKNRNKCQYCRFQKCLALGMSHNAIRF [V6S], the abundance fitness is -1.07 ± 0.14. Take NMECRVCGDKASGFHYGVHACEGCKGFFRRTIRMKLEYEKCERSCKIQLKNRNKCQYCRFQKCLALGMSHNAIRF [K49L]: the abundance fitness is 0.066 ± 0.26. Under NMECRVCGDKASGFHYGVHACEGCKGFFRRTIRMKLEYEKCERSCKIQFKNRNKCQYCRFQKCLALGMSHNAIRF [K49F] stands -0.045 ± 0.22; under NMECRVCGDKASGFHYGVHACEGCKGFFRRTIRMKLEYEKCERSCKIQKKNRNKCQYCRFQKCLALGMSHNAIFF [R74F], 0.049 ± 0.18. For the variant NMECRVCGDKASGFHYGVHACEGCKGFFRRTIRMKLEYEKCERSCKIQKKNRNKCQYCRFQKCLALGMSHNAITF [R74T], the abundance fitness was determined as 0.071 ± 0.062. With NMECRVCGDKASGFHYGVHACEGCKGFFRRTIRMKLEYEKCERSCKIQKKNRNKCQYCRFQKCLALGMSHNNIRF [A72N], the abundance fitness is -0.092 ± 0.084.

Regarding NMECRVCGDKASGFHYGVHACEGCKGFFRRTIRMKLEYEKCERSCKIQKKNRNKCQYCRFNKCLALGMSHNAIRF [Q61N], the abundance fitness was -0.359 ± 0.095. For NMECRVCGDKASGFHYGVHACEGCKGFFRRTIRMKLEYEKCERSCKIQKKNRNKCQYCRFIKCLALGMSHNAIRF [Q61I], the abundance fitness was -0.254 ± 0.1. As to NMECRVCGDKASGFHYGEHACEGCKGFFRRTIRMKLEYEKCERSCKIQKKNRNKCQYCRFQKCLALGMSHNAIRF [V18E], the abundance fitness was -0.398 ± 0.063. As for NMECRVCGDKASGFHYGPHACEGCKGFFRRTIRMKLEYEKCERSCKIQKKNRNKCQYCRFQKCLALGMSHNAIRF [V18P], the abundance fitness is -0.492 ± 0.075.

NMECRVCGDKASGFHYGVHACEGCKGFFRRTIRMKLEYEKCERSCKIQKKNRNKCQYCRFQKCIALGMSHNAIRF [L64I]: the abundance fitness is -0.037 ± 0.07.

For the variant NMECRVCGDKASGFHYGVHAMEGCKGFFRRTIRMKLEYEKCERSCKIQKKNRNKCQYCRFQKCLALGMSHNAIRF [C21M], the abundance fitness was -0.912 ± 0.26. The same measure for NMECRVCGDKASGFHYGVHACEGCKGFFRRTINMKLEYEKCERSCKIQKKNRNKCQYCRFQKCLALGMSHNAIRF [R33N]: 0.082 ± 0.1; for NMECRVCGDKASGFHYGVHACEGCKGFFRRTICMKLEYEKCERSCKIQKKNRNKCQYCRFQKCLALGMSHNAIRF [R33C]: 0.11 ± 0.062; for NMECRVCGDKASGFHYGVHACEGCKGFFRRTIRMFLEYEKCERSCKIQKKNRNKCQYCRFQKCLALGMSHNAIRF [K35F]: -0.339 ± 0.1. Take NMECRVCGDKASGFHYGVHACEGCKGFFRRTIRMKLEYEKCERSWKIQKKNRNKCQYCRFQKCLALGMSHNAIRF [C45W]: the abundance fitness is -0.864 ± 0.12.

NMECRVCGDKASGFRYGVHACEGCKGFFRRTIRMKLEYEKCERSCKIQKKNRNKCQYCRFQKCLALGMSHNAIRF [H15R]: the abundance fitness was -0.595 ± 0.057. Take NMECRVCGDKASGFHYGVHACEGHKGFFRRTIRMKLEYEKCERSCKIQKKNRNKCQYCRFQKCLALGMSHNAIRF [C24H]: the abundance fitness was -0.15 ± 0.16. On to NMECRVCGDKASGFHYGVHACEGCKGQFRRTIRMKLEYEKCERSCKIQKKNRNKCQYCRFQKCLALGMSHNAIRF [F27Q], for which the abundance fitness is -0.958 ± 0.21. As for NMECRVCGDKASGFHYGVHACEGCKGKFRRTIRMKLEYEKCERSCKIQKKNRNKCQYCRFQKCLALGMSHNAIRF [F27K], the abundance fitness was -0.772 ± 0.17. In the case of NMECRVCGDKASGFHYGVHACEGCKGFFRRTIRMKLEYEKCERSCKEQKKNRNKCQYCRFQKCLALGMSHNAIRF [I47E], the abundance fitness is -0.235 ± 0.035. The same measure for NMECRVCGDKASLFHYGVHACEGCKGFFRRTIRMKLEYEKCERSCKIQKKNRNKCQYCRFQKCLALGMSHNAIRF [G13L]: -0.48 ± 0.055; for NMECRVCGDKASQFHYGVHACEGCKGFFRRTIRMKLEYEKCERSCKIQKKNRNKCQYCRFQKCLALGMSHNAIRF [G13Q]: -0.322 ± 0.077; for NMECRVCGDKASRFHYGVHACEGCKGFFRRTIRMKLEYEKCERSCKIQKKNRNKCQYCRFQKCLALGMSHNAIRF [G13R]: -0.427 ± 0.045. On to NMECRVCGDKASGFHYGVHACEGCKGFFRRTIRMKLEYEKCERSCKIQKRNRNKCQYCRFQKCLALGMSHNAIRF [K50R], for which the abundance fitness was -0.06 ± 0.035.

As to NMECRVCGDKASGFHYGVHACEGCKGFFRRTIRMKLEYEKCERSCKIQKKNRNKCQYCRFQKCLALGMSCNAIRF [H70C], the abundance fitness was -0.206 ± 0.12. Turning to NMECRVCGDKASGFHYGVHACEGCKGFFRRTIRMKLEYEKCERSCKIQKKNRNKCQYCRFQKCLALGMSHNAWRF [I73W], the abundance fitness was -0.152 ± 0.049. Under NMECRVCGDKASGFHYGVHACQGCKGFFRRTIRMKLEYEKCERSCKIQKKNRNKCQYCRFQKCLALGMSHNAIRF [E22Q] stands -0.332 ± 0.079. For NMECRVCGDKASGFHYGVHACEGCKGFFRRTIRMKLEYEKCTRSCKIQKKNRNKCQYCRFQKCLALGMSHNAIRF [E42T], the abundance fitness was -0.117 ± 0.042. Turning to NMECRVCGDKASGFHYGVHACEGCKGFFRRTIRMKLEYERCERSCKIQKKNRNKCQYCRFQKCLALGMSHNAIRF [K40R], the abundance fitness is -0.095 ± 0.033. In the case of NMECRVCGDKASGFHYGVHACEGCKGFYRRTIRMKLEYEKCERSCKIQKKNRNKCQYCRFQKCLALGMSHNAIRF [F28Y], the abundance fitness was -0.159 ± 0.12.
